PMC5770569

B1: Purified EGFL7 (SPRimager II experiments and blocking study) (natural protein)
chain: YRPGRRVCAVRAHGDPVSESFVQRVYQPFLTTCDGHRACSTYRTIYRTAYRRSPGLAPARPRYACCPGWKRTSGLPGACGAAICQPPCRNGGSCVQPGRCRCPAGWRGDTCQSDVDECSARRGGCPQRCVNTAGSYWCQCWEGHSLSADGTLCVPKGGPPRVAPNPTGVDSAMKEEVQRLQSRVDLLEEKLQLVLAPLHSLASQALEHGLPDPGSLLVHSFQQLGRIDSLSEQISFLEEQLGSCSCKKDS

Legend:
[1] = biological target: Purified recombinant EGFL7 (Sino Biological Inc.) (human) (UniProt Q9UHF1); experiment: SPR
[2] = biological target: Fluorescein-labeled E7p72; experiment: flow cytometry on cells
[3] = biological target: E7p74, re-synthesized with a Cys for the SPR chip; experiment: SPR
[4] = biological target: E7p72, re-synthesized with a Cys for the SPR chip; experiment: SPR

Molecule	koff [1] [s⁻¹]	percent decrease in the uptake of FITC-E7p72 by EA.hy926 cells with 3x EGFL7 [2] [%]	Kd [3] [nM]	Kd [4] [nM]
A647-CPMV-PEG viral nanoparticle (control)	0.00124			
B1		64.5	14.3	13.2
